This note sets out measurements from patent US20190218532.

This data set addresses SpCas9::KQ (nuclease-deficient) KQ insertion (Streptococcus pyogenes) (UniProt Q99ZW2). Briefly: cell_activity. Conditions: PAM TGG; half the fraction of GFP-positive cells of SpCas9.
Sequence of UniProt Q99ZW2 (Q99ZW2 whole entry): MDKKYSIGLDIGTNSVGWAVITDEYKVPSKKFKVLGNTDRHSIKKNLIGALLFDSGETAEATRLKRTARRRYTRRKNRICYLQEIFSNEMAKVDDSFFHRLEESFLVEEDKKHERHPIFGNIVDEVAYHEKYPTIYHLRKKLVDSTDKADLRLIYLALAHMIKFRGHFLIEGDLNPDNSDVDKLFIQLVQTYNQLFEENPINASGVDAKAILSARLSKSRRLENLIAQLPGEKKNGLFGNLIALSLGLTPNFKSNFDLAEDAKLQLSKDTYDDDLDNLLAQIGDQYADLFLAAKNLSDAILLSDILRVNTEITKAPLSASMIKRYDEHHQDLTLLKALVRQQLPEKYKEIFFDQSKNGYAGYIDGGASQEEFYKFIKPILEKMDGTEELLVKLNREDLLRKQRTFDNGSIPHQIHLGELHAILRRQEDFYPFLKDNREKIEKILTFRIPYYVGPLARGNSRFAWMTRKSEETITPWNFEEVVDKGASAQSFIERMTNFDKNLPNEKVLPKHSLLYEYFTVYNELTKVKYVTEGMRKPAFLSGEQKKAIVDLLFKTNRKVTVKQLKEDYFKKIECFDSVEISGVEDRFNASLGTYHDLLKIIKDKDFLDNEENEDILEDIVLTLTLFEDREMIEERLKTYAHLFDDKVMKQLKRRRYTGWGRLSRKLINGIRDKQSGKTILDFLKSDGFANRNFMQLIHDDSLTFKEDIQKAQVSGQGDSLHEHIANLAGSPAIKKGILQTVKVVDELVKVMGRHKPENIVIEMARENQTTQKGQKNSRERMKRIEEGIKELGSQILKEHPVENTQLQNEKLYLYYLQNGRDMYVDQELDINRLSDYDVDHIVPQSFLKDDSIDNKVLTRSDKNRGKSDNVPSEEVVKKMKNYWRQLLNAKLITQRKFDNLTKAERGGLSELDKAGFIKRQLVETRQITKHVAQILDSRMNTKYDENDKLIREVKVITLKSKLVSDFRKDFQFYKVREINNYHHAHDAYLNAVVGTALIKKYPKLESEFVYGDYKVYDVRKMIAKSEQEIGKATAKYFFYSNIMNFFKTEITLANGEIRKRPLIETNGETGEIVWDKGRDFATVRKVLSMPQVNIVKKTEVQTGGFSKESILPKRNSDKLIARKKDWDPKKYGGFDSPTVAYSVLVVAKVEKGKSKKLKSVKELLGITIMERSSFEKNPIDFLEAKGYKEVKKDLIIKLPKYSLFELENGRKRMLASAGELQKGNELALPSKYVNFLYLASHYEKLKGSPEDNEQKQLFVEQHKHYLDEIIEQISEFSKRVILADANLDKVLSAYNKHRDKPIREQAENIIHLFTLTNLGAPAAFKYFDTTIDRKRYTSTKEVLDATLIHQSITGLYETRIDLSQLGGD

The sequence “CGAAAGGUUUUGCACUCGAC / CGAAAGGTTTTGCACTCGACTGG / CCAGTCGAGTGCAAAACCTTTCG” displayed a binding signal (fraction of SpCas9 GFP-positive cells) of 0.5.
